Where a chain is given by its changes, count along the chain named.
B1: RA089 (nucleic acid)
DNA: GCGCGTCCTGGATTCGCGGAAACGCGTACATCCAGCTGACGAGTCCCAAATAGGACCGGAATACCAGCATCGTCTTGATGCCCTTGGAAGTCCGGAAACGCGC
modifications: expressed or natural sequence
B2: RA090 (nucleic acid)
DNA: GCGCGTCCTGGAAGTGATACCAGCATCGTCTTGATGCCCTTGGCAGCACTTTCGCGGAAACGCGTACATCCAGCTGACGAGTCCCAAATAGGACGAAACGCGC
modifications: expressed or natural sequence
B3: RA091 (nucleic acid)
DNA: GGAATACCAGCATCGTCTTGATGCCCTTGGAAGTCCGCGCGTCCTGGATTCGCGGAAACGCGTACATCCAGCTGACGAGTCCCAAATAGGACGAAACGCGC
modifications: expressed or natural sequence
B4: RA092 (nucleic acid)
DNA: GCGCGTCCTGGATTCGCGGAAACGCGTACATCCAGCTGACGAGTCCCAAATAGGACCGGAATACCAGCATCGTCTTGATGCCCTTGGAAGTCCGGCGAAACGCGC
modifications: expressed or natural sequence
B5: RA093 (nucleic acid)
DNA: AGTGATACCAGCATCGTCTTGATGCCCTTGGCAGCACTGCGCGTCCTGGATTCGCGGAAACGCGTACATCCAGCTGACGAGTCCCAAATAGGACGAAACGCGC
modifications: expressed or natural sequence
B6: RA094 (nucleic acid)
DNA: GCGCGTCCTGGATTCGCGGAGGAATACCAGCATCGTCTTGATGCCCTTGGAAGTCCAACGCGTACATCCAGCTGACGAGTCCCAAATAGGACGAAACGCGC
modifications: expressed or natural sequence
B7: RA095 (nucleic acid)
DNA: GCGCGTCAGAATACCAGCATCGTCTTGATGCCCTTGGAAGTCTCTGGATTCGCGGAAACGCGTACATCCAGCTGACGAGTCCCAAATAGGACGAAACGCGC
modifications: expressed or natural sequence
B8: RA096 (nucleic acid)
DNA: GCGCGTCAGTGATACCAGCATCGTCTTGATGCCCTTGGCAGCACTCTGGATTCGCGGAAACGCGTACATCCAGCTGACGAGTCCCAAATAGGACGAAACGCGC
modifications: expressed or natural sequence
B9: RA097 (nucleic acid)
DNA: GCGCGTCCTGGATTCGCGGAAACGCGTACATCCAGCTGACGAGTCCCAGAATACCAGCATCGTCTTGATGCCCTTGGAAGTCTAAATAGGACGAAACGCGC
modifications: expressed or natural sequence
B10: RA009 (nucleic acid)
DNA: GCGCGTCCTGGATTCGCGGAAACGCGTACATCCAGCTGACGAGTCCCAAATAGGACGACCGGAATACCAGCATCGTCTTGATGCCCTTGGAAGTCCGGAACGCGC
modifications: expressed or natural sequence
B11: RA098 (nucleic acid)
DNA: GCGCGTCCTGGATTCGCGGAAACGCGTACATCCCCGGAATACCAGCATCGTCTTGATGCCCTTGGAAGTCCGGAGCTGACGAGTCCCAAATAGGACGAAACGCGC
modifications: expressed or natural sequence
B12: RA099 (nucleic acid)
DNA: GCGCGTCCTGGATTCGCGGAAACGCGTACATAGTGATACCAGCATCGTCTTGATGCCCTTGGCAGCACTCCAGCTGACGAGTCCCAAATAGGACGAAACGCGC
modifications: expressed or natural sequence
B13: RA100 (nucleic acid)
DNA: GCGCGTCCTGGATTCGCGGAAACGCGTACATCCAGCTGACCGGAATACCAGCATCGTCTTGATGCCCTTGGAAGTCCGGAGTCCCAAATAGGACGAAACGCGC
modifications: expressed or natural sequence
B14: RA101 (nucleic acid)
DNA: GCGCGTCCTGGATTCGCGGAAACGCGTACATCCAGCTGACGAGTCCCAAATAGGACGAACGGAATACCAGCATCGTCTTGATGCCCTTGGAAGTCCGACGCGC
modifications: expressed or natural sequence
B15: RA102 (nucleic acid)
DNA: B7 DNA with A8G, T43C
modifications: expressed or natural sequence
B16: RA103 (nucleic acid)
DNA: GCGCGTCCTGGATTCGCGGAAACGCGTACATCCAGCTGACGGAATACCAGCATCGTCTTGATGCCCTTGGAAGTCCGAGTCCCAAATAGGACGAAACGCGC
modifications: expressed or natural sequence
B17: RA104 (nucleic acid)
DNA: GCGCGTCCTGGATTCGCGGAAACGCGTACATCCAGCTGACGAGTCCCAAATCGAGAATACCAGCATCGTCTTGATGCCCTTGGAAGTCTCGAGGACGAAACGCGC
modifications: expressed or natural sequence
B18: RA105 (nucleic acid)
DNA: GCGCGTCCTGGAGAATACCAGCATCGTCTTGATGCCCTTGGAAGTCTCGATTCGCGGAAACGCGTACATCCAGCTGACGAGTCCCAAATAGGACGAAACGCGC
modifications: expressed or natural sequence
B19: RA106 (nucleic acid)
DNA: GCGCGTCCTGGATTCGCGGAAACGCGTACATCCAGCTGACCGGAATACCAGCATCGTCTTGATGCCCTTGGAAGTCCGGCGAGTCCCAAATAGGACGAAACGCGC
modifications: expressed or natural sequence
B20: RA107 (nucleic acid)
DNA: GCGCGTCCTGGATTCGCGGAAACGCGTACATCCCGGAATACCAGCATCGTCTTGATGCCCTTGGAAGTCCGAGCTGACGAGTCCCAAATAGGACGAAACGCGC
modifications: expressed or natural sequence
B21: RA010 (nucleic acid)
DNA: GCGCGTCCTGGACGAGAATACCAGCATCGTCTTGATGCCCTTGGAAGTCTCGTTCGCGGAAACGCGTACATCCAGCTGACGAGTCCCAAATAGGACGAAACGCGC
modifications: expressed or natural sequence
B22: RA108 (nucleic acid)
DNA: GCGCGTCCTGGATTCGCGGCCGGAATACCAGCATCGTCTTGATGCCCTTGGAAGTCCGGAAACGCGTACATCCAGCTGACGAGTCCCAAATAGGACGAAACGCGC
modifications: expressed or natural sequence
B23: RA109 (nucleic acid)
DNA: GCGCCGAGAATACCAGCATCGTCTTGATGCCCTTGGAAGTCTCGGTCCTGGATTCGCGGAAACGCGTACATCCAGCTGACGAGTCCCAAATAGGACGAAACGCGC
modifications: expressed or natural sequence
B24: RA110 (nucleic acid)
DNA: GCGCGTCCTGGGGAATACCAGCATCGTCTTGATGCCCTTGGAAGTCCATTCGCGGAAACGCGTACATCCAGCTGACGAGTCCCAAATAGGACGAAACGCGC
modifications: expressed or natural sequence
B25: RA111 (nucleic acid)
DNA: GCGCGTCCTAGTGATACCAGCATCGTCTTGATGCCCTTGGCAGCACTGGATTCGCGGAAACGCGTACATCCAGCTGACGAGTCCCAAATAGGACGAAACGCGC
modifications: expressed or natural sequence
B26: RA112 (nucleic acid)
DNA: GCGCGTCCTGGATTCGCGGAAACGCGTACATCCAGGGAATACCAGCATCGTCTTGATGCCCTTGGAAGTCCCTGACGAGTCCCAAATAGGACAAAACGCGC
modifications: expressed or natural sequence
B27: RA113 (nucleic acid)
DNA: GCGCGTCCTGGATTCGCGGAAACGCGTACATCCAGCTGACGAGTCCCAAATAGGACGAAACGCGC
modifications: expressed or natural sequence
B28: RA114 (nucleic acid)
DNA: GCGCGTCCTGGATTCGCGGAAACGCGTACATCCAGCTGACGAGTCCCAAATAGGACGAGGAATACCAGCATCGTCTTGATGCCCTTGGAAGTCCAACGCGC
modifications: expressed or natural sequence
B29: RA115 (nucleic acid)
DNA: GCGCGTCCTGGATTCGCGGAAACGCGTACATCCAGCTGACGAGTCCCAAATAGGACGAGAATACCAGCATCGTCTTGATGCCCTTGGAAGTCTAAACGCGC
modifications: expressed or natural sequence

system: Renilla luciferase RNA; test: Barcoded aptazyme variant library screen: un-cleaved Renilla luciferase RNA by barcode read counts, HEK293-T cells; type: cell-based; conditions: un-cleaved Renilla luciferase RNA, HEK293-T cells cultured with 1 mM theophylline (ON) over without theophylline (OFF); barcode read counts, triplicate
Procedure, shortened: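 Aptazyme variants (seven theophylline aptamers inserted after each T3H48 ribozyme nucleotide, 9-nt barcoded) cloned into the 3′ UTR of Renilla luciferase in psiCHECK-2; cells cultured ± theophylline, in triplicate. RNA and DNA barcodes amplified and sequenced; normalized read counts gave un-cleaved RNA fraction and ON/OFF fold-change.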

Molecule	Fold change in RNA expression between the ON state and the OFF state [fold]
B1	1.7
B2	1.7
B3	1.6
B4	1.6
B5	1.6
B6	1.6
B7	1.6
B8	1.6
B9	1.6
B10	3.8
B11	1.6
B12	1.6
B13	1.6
B14	1.6
B15	1.6
B16	1.6
B17	1.6
B18	1.6
B19	1.6
B20	1.6
B21	3.6
B22	1.6
B23	1.6
B24	1.6
B25	1.6
B26	1.5
B27	1.5
B28	1.5
B29	1.5

Reference: US20260167959A1, “APTAZYME-BASED REGULATABLE GENE EXPRESSION SYSTEMS” (REJUVENATE BIO INC, priority 2022, published 2026)
